Laboratory results as given in patent US20220228161A1 (published 2022).
Where two headings read alike, the source gives them in different places.

Experiments:
gp41 peptide […] = assay: SPR, antibody captured on Protein A chip, peptide as analyte, 1:1 model
[1] = target: Nicotiana benthamiana subtilisin-like serine protease SBT2, recombinant, C-terminal hexahistidine tag; assay: enzyme inhibition (fluorogenic substrate); pH 5.5, 30°C
[2] = target: Nicotiana benthamiana subtilisin-like serine protease SBT1, recombinant, C-terminal hexahistidine tag; assay: as above
[3] = target: T1, Nicotiana benthamiana subtilisin-like serine protease SBT2, recombinant, C-terminal hexahistidine tag; assay: as above
T1 chain: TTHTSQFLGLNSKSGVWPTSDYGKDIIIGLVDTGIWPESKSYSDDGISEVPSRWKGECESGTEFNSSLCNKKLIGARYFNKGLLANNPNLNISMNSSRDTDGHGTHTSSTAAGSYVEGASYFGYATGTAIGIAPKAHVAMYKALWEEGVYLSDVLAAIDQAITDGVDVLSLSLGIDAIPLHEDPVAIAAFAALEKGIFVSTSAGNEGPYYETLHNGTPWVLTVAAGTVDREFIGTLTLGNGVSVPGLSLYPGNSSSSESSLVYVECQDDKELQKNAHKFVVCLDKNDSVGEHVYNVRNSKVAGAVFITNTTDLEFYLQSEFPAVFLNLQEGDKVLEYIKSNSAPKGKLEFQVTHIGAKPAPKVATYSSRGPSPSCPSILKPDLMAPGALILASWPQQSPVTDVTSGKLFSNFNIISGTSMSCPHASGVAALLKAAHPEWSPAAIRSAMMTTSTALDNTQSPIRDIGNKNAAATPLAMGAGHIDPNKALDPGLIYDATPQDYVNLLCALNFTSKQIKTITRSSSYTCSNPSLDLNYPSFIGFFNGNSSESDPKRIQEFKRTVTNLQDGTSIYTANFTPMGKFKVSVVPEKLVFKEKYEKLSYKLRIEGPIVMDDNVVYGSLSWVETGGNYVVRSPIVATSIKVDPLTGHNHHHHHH

[4] = target: T2, Nicotiana benthamiana subtilisin-like serine protease SBT1, recombinant, C-terminal hexahistidine tag; assay: as above
T2 chain: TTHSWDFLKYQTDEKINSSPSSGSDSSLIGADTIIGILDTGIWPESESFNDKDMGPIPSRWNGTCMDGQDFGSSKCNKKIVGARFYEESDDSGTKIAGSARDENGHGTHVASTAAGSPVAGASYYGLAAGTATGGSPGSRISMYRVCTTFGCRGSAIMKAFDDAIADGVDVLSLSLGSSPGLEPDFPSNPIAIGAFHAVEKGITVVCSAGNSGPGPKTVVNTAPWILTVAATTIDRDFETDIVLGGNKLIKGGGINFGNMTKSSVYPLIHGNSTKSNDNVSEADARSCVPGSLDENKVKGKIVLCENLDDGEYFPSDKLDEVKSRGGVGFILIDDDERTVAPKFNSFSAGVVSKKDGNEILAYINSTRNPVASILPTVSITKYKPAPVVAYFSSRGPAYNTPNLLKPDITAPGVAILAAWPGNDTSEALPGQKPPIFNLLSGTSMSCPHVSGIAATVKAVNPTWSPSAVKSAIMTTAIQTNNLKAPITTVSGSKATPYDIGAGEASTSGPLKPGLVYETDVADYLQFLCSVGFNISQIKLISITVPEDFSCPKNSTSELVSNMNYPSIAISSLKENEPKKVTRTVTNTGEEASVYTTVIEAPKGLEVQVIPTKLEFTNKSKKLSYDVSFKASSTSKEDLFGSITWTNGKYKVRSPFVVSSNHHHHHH

Q: With “cleaved 2F5 (2F5 degradation product after digestion with apoplastic fluid proteases) (antibody)” as the molecule, how does the fold reduction of affinity against intact 2F5 (gp41 peptide […]) read?
A: > 20 fold

Q: “S106g065370 (subtilisin propeptide-like inhibitor from S. lycopersicum)” was tested. Which Ki [1] did it give?
A: 27 nM

Q: How did the Ki [2] turn out when “S111g018590 (subtilisin propeptide-like inhibitor from S. lycopersicum)” was run?
A: 51 nM

B1: Arabidopsis thaliana subtilisin propeptide-like inhibitor 2 (other)
chain: RTLGPAPDNQQMKCYLVNVDFALYHGDCKQYQQLLKKVVHGRSAKDALVYCYKEVMSGFAAKLTAAEAEKLKGEKGISAIDVDHIFSMDVEPHSHGKGY
Q: B1 was tested. Which Ki [3] did it give?
A: 45 nM

Q: What about the Ki [4] of the same molecule?
A: 81 nM
